Test results as given in patent publication US20150266962A1.

Target: human IL-13Rα2 on the surface of human tumour cell lines (human) (UniProt Q14627)
Experiment: cell-based or functional assay

Sequence of human IL-13Rα2 on the surface of human tumour cell lines (human) (Q14627 27-380): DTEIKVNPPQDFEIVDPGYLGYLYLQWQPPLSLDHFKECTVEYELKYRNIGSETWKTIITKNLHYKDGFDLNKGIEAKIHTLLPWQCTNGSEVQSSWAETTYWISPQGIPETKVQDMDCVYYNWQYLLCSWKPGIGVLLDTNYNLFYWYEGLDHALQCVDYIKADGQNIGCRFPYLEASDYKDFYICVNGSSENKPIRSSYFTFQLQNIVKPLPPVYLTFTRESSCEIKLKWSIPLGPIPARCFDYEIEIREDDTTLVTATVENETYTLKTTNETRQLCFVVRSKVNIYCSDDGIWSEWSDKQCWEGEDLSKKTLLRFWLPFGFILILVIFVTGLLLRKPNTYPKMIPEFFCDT

Row | Substance | IC50 (ng Ab/mL), in vitro cytotoxicity, A375 [ng Ab/mL] | IC50 (ng Ab/mL), in vitro cytotoxicity, PC3MM2 [ng Ab/mL] | % internalization, 15 min, A375 [%] | % internalization, 15 min, H460R [%] | % internalization, 15 min, Hs766T [%] | % internalization, 15 min, PC3MM2 [%] | % internalization, 4 hours, A375 [%] | % internalization, 4 hours, H460R [%] | % internalization, 4 hours, Hs766T [%] | % internalization, 4 hours, PC3MM2 [%]
1 | hIgG8.8-mc-3377 non-binding control ADC (antibody) | > 400000 | > 400000 | – | – | – | – | – | – | – | –
2 | ab27414 (Abcam), monoclonal mouse IgG1 anti-IL-13Rα2 (antibody) | – | – | 49.3 | 57.5 | 60.8 | 60.2 | 68.2 | 49.2 | 73.6 | 49.7
3 | hIgG8.8-vc-0101 non-binding control ADC (antibody) | > 400000 | > 400000 | – | – | – | – | – | – | – | –
